Earlier results, collected in patent US20100215737A1, “COMBINATION PHARMACEUTICAL COMPOSITIONS” (priority 2007, published 2010).

Test system: MCO
Settings: 1 mg/kg iv alone, 1, 2 or 3 h after occlusion

B1: rt-PA: tissue plasminogen activator, thrombolytic (protein, UniProt P00750 36-562, looked up)
Tissue-type plasminogen …: SYQVICRDEKTQMIYQQHQSWLRPVLRSNRVEYCWCNSGRAQCHSVPVKSCSEPRCFNGGTCQQALYFSDFVCQCPEGFAGKCCEIDTRATCYEDQGISYRGTWSTAESGAECTNWNSSALAQKPYSGRRPDAIRLGLGNHNYCRNPDRDSKPWCYVFKAGKYSSEFCSTPACSEGNSDCYFGNGSAYRGTHSLTESGASCLPWNSMILIGKVYTAQNPSAQALGLGKHNYCRNPDGDAKPWCHVLKNRRLTWEYCDVPSCSTCGLRQYSQPQFRIKGGLFADIASHPWQAAIFAKHRRSPGERFLCGGILISSCWILSAAHCFQERFPPHHLTVILGRTYRVVPGEEEQKFEVEKYIVHKEFDDDTYDNDIALLQLKSDSSRCAQESSVVRTVCLPPADLQLPDWTECELSGYGKHEALSPFYSERLKEAHVRLYPSSRCTSQHLLNRTVTDNMLCAGDTRSGGPQANLHDACQGDSGGPLVCLNDGRMTLVGIISWGLGCGQKDVPGVYTKVTNYLDWIRDNMRP
For B1, the “neuroprotective effect, drug alone” value is given as “neuroprotective effects when administered alone up to 1 h following occlusion”.
